Reference: patent publication US20230287125A1 (LEPU BIOPHARMA, published 2023)

B1: Hu67F3G7-8 (antibody, V domains shown)
VH: EVQLVQSGAEVKKPGASVKVSCKASGYIFTDFWVSWVRQAPGQGLEWIGEIYPNSGVSRYNEKFKGRVTMTVDKSISTAYMELSRLRSDDTAVYYCTKYFGYTYWFGYWGQGTLVTVSS
VL: DTVLTQSPSSLSASVGDRVTITCRASKSVSTYMHWYQQKPGKAPKLLIYSASHLESGVPSRFSGSGSGTDFTLTISSLQPEDFATYYCQQSNELPVTFGGGTKVEIK
notes: humanized
B2: Hu67F3G7-1 (antibody, V domains shown)
VH: EVQLVQSGAEVKKPGASVKVSCKASGYTFTDFWVSWVRQAPGQGLEWMGEIYPNSGVSRYNEKFKGRVTMTVDKSISTAYMELSRLRSDDTAVYYCARYFGYTYWFGYWGQGTLVTVSS
VL: DIQMTQSPSSLSASVGDRVTITCRASKSVSTYMHWYQQKPGKAPKLLIYSASHLESGVPSRFSGSGSGTDFTLTISSLQPEDFATYYCQQSNELPVTFGGGTKVEIK
notes: humanized
B3: Hu67F3G7-6 (antibody, V domains shown)
VH: EVQLVQSGAEVKKPGASVKVSCKASGYTFTDFWVSWVRQAPGQGLEWMGEIYPNSGVSRYNEKFKGRVTMTVDKSISTAYMELSRLRSDDTAVYYCARYFGYTYWFGYWGQGTLVTVSS
VL: DTVLTQSPSSLSASVGDRVTITCRASKSVSTYMHWYQQKPGKAPKLLIYSASHLESGVPSRFSGSGSGTDFTLTISSLQPEDFATYYCQQSNELPVTFGGGTKVEIK
notes: humanized
B4: Hu67F3G7-13 (antibody, V domains shown)
VH: EVQLVQSGAEVKKPGASVKVSCKASGYIFTDFWVSWVRQAPGQGLEWIGEIYPNSGVSRYNEKFKGRVTMTVDKSISTAYMELSRLRSDDTAVYYCTKYFGYTYWFGYWGQGTLVTVSS
VL: DTVLTQSPSSLSASVGDRVTITCRASKSVSTYMHWYQQKPGKQPKLLIYSASHLESGVPSRFSGSGSGTDFTLTISSLQPEDFATYYCQQSNELPVTFGGGTKVEIK
notes: humanized
B5: Hu67F3G7-4 (antibody, V domains shown)
VH: EVQLVQSGAEVKKPGASVKVSCKASGYIFTDFWVSWVRQAPGQGLEWIGEIYPNSGVSRYNEKFKGRVTMTVDKSISTAYMELSRLRSDDTAVYYCARYFGYTYWFGYWGQGTLVTVSS
VL: DIQMTQSPSSLSASVGDRVTITCRASKSVSTYMHWYQQKPGKAPKLLIYSASHLESGVPSRFSGSGSGTDFTLTISSLQPEDFATYYCQQSNELPVTFGGGTKVEIK
notes: humanized
B6: Hu67F3G7-10 (antibody, V domains shown)
VH: EVQLVQSGAEVKKPGASVKVSCKASGYIFTDFWVSWVRQAPGKGLEWIGEIYPNSGVSRYNEKFKGRVTMTVDKSISTAYMELSRLRSDDTAVYYCTKYFGYTYWFGYWGQGTLVTVSS
VL: DTVLTQSPSSLSASVGDRVTITCRASKSVSTYMHWYQQKPGKAPKLLIYSASHLESGVPSRFSGSGSGTDFTLTISSLQPEDFATYYCQQSNELPVTFGGGTKVEIK
notes: humanized
B7: Hu67F3G7-9 (antibody, V domains shown)
VH: EVQLVQSGAEVKKPGASVKVSCKASGYIFTDFWVSWVRQAPGQGLEWIGEIYPNSGVSRYNEKFKGRVTMTVDKSISTAYMELSRLRSDDTAVYYCARYFGYTYWFGYWGQGTLVTVSS
VL: DTVLTQSPSSLSASVGDRVTITCRASKSVSTYMHWYQQKPGKAPKLLIYSASHLESGVPSRFSGSGSGTDFTLTISSLQPEDFATYYCQQSNELPVTFGGGTKVEIK
notes: humanized
B8: Hu67F3G7-11 (antibody, V domains shown)
VH: EVQLVQSGAEVKKPGASVKVSCKASGYTFTDFWVSWVRQAPGQGLEWMGEIYPNSGVSRYNEKFKGRVTMTVDKSISTAYMELSRLRSDDTAVYYCARYFGYTYWFGYWGQGTLVTVSS
VL: DTVLTQSPSSLSASVGDRVTITCRASKSVSTYMHWYQQKPGKQPKLLIYSASHLESGVPSRFSGSGSGTDFTLTISSLQPEDFATYYCQQSNELPVTFGGGTKVEIK
notes: humanized
B9: Hu67F3G7-12 (antibody, V domains shown)
VH: EVQLVQSGAEVKKPGASVKVSCKASGYTFTDFWVSWVRQAPGQGLEWMGEIYPNSGVSRYNEKFKGRVTMTVDKSISTAYMELSRLRSDDTAVYYCTKYFGYTYWFGYWGQGTLVTVSS
VL: DTVLTQSPSSLSASVGDRVTITCRASKSVSTYMHWYQQKPGKQPKLLIYSASHLESGVPSRFSGSGSGTDFTLTISSLQPEDFATYYCQQSNELPVTFGGGTKVEIK
notes: humanized
B10: Hu89C10H8-1 (antibody, V domains shown)
VH: EVQLVESGGGLVKPGGSLRLSCAASGFTFSNYWMTWVRQAPGKGLEWVASITNTGSSTFYPDSVKGRFTISRDNAKNSLYLQMNSLRAEDTAVYYCARDTTIAPFDYWGQGTMVTVSS
VL: DIQMTQSPSSLSASVGDRVTITCKASQNLNEYLNWYQQKPGKAPKRLIYKTNTLQAGVPSRFSGSGSGTDYTLTISSLQPEDFATYYCSQYNSGNTFGQGTKLEIK
notes: humanized
B11: Hu89C10H8-6 (antibody, V domains shown)
VH: EVQLVESGGGLVKPGGSLRLSCAASGFTFSNYWMTWVRQAPGKGLEWVASITNTGSSTFYPDSVKGRFTISRDNAKNSLYLQMNSLRAEDTAVYYCTRDTTIAPFDYWGQGTMVTVSS
VL: DIQMTQSPSSLSASVGDRVTITCKASQNLNEYLNWYQQKPGKAPKRLIYKTNTLQAGIPSRFSGSGSGTDYTLTISSLQPEDFATYYCSQYNSGNTFGQGTKLEIK
notes: humanized
B12: Hu89C10H8-3 (antibody, V domains shown)
VH: EVQLVESGGGLVKPGGSLRLSCAASGFTFSNYWMTWIRQAPGKGLEWVASITNTGSSTFYPDSVKGRFTISRDNAKNSLYLQMNSLRAEDTAVYYCTRDTTIAPFDYWGQGTMVTVSS
VL: DIQMTQSPSSLSASVGDRVTITCKASQNLNEYLNWYQQKPGKAPKRLIYKTNTLQAGVPSRFSGSGSGTDYTLTISSLQPEDFATYYCSQYNSGNTFGQGTKLEIK
notes: humanized
B13: Hu89C10H8-2 (antibody, V domains shown)
VH: EVQLVESGGGLVKPGGSLRLSCAASGFTFSNYWMTWVRQAPGKGLEWVASITNTGSSTFYPDSVKGRFTISRDNAKNSLYLQMNSLRAEDTAVYYCTRDTTIAPFDYWGQGTMVTVSS
VL: DIQMTQSPSSLSASVGDRVTITCKASQNLNEYLNWYQQKPGKAPKRLIYKTNTLQAGVPSRFSGSGSGTDYTLTISSLQPEDFATYYCSQYNSGNTFGQGTKLEIK
notes: humanized
B14: Hu89C10H8-5 (antibody, V domains shown)
VH: EVQLVESGGGLVKPGGSLRLSCAASGFTFSNYWMTWVRQAPGKGLEWVASITNTGSSTFYPDSVKGRFTISRDNAKNSLYLQMNSLRAEDTAVYYCARDTTIAPFDYWGQGTMVTVSS
VL: DIQMTQSPSSLSASVGDRVTITCKASQNLNEYLNWYQQKPGKAPKRLIYKTNTLQAGIPSRFSGSGSGTDYTLTISSLQPEDFATYYCSQYNSGNTFGQGTKLEIK
notes: humanized
B15: Hu89C10H8-10 (antibody, V domains shown)
VH: EVQLVESGGGLVKPGGSLRLSCAASGFTFSNYWMTWVRQAPGKGLEWVASITNTGSSTFYPDSVKGRFTISRDNAKNSLYLQMNSLRAEDTAVYYCTRDTTIAPFDYWGQGTMVTVSS
VL: DIQMTQSPSSLSASVGDRVTITCKASQNLNEYLNWYQQKPGKAPKRLIYKTNTLQAGIPSRFSGSGSGIDYTLTISSLQPEDFATYYCSQYNSGNTFGQGTKLEIK
notes: humanized
B16: Hu89C10H8-8 (antibody, V domains shown)
VH: EVQLVESGGGLVKPGGSLRLSCAASGFTFSNYWMTWIRQAPGKGLEWVASITNTGSSTFYPDSVKGRFTISRDNAKSSLYLQMNSLRAEDTAVYYCTRDTTIAPFDYWGQGTMVTVSS
VL: DIQMTQSPSSLSASVGDRVTITCKASQNLNEYLNWYQQKPGKAPKRLIYKTNTLQAGIPSRFSGSGSGTDYTLTISSLQPEDFATYYCSQYNSGNTFGQGTKLEIK
notes: humanized
B17: Hu89C10H8-9 (antibody, V domains shown)
VH: EVQLVESGGGLVKPGGSLRLSCAASGFTFSNYWMTWVRQAPGKGLEWVASITNTGSSTFYPDSVKGRFTISRDNAKNSLYLQMNSLRAEDTAVYYCARDTTIAPFDYWGQGTMVTVSS
VL: DIQMTQSPSSLSASVGDRVTITCKASQNLNEYLNWYQQKPGKAPKRLIYKTNTLQAGIPSRFSGSGSGIDYTLTISSLQPEDFATYYCSQYNSGNTFGQGTKLEIK
notes: humanized

Legend:
[1] = target: T1, human PD-L1-Fc protein (human, UniProt Q9NZQ7 19-238); assay: ELISA, antibody titrated on coated human PD-L1-Fc, OD 450nm; upper right panel
T1 construct: coating antigen of the ELISAs; also called rhPD-L1-Fc; not shown: Fc
T1 sequence (Q9NZQ7 19-238 limits assumed): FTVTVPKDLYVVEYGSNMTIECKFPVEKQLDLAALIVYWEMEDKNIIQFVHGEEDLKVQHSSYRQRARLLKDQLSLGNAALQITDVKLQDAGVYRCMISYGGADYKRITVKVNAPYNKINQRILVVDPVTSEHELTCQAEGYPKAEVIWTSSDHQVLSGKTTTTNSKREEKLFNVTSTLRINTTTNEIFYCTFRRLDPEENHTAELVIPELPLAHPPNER
Method: (§1) To evaluate antigen binding activity, the humanized antibodies were subjected to ELISA test. Briefly, microtiter plates were coated with human PD-L1-Fc protein at 0.5 μg/ml in PBS, 100 μl/well at 4° C. overnight, then blocked with 200 μl/well of 1% BSA. Three-fold dilutions of humanized antibodies starting from 10 μg/ml were added to each well and incubated for 1 hour at 37° C. The plates were washed with PBS/Tween and then incubated with mouse-anti-human IgG Fab antibody conjugated with Horse Radish Peroxidase (HRP) for 1 hour at 37° C. After washing, the plates were developed with TMB substrate and analyzed by spectrophotometer at OD 450 nm.

[2] = target: T2, human PD-L1-his tag protein (human, UniProt Q9NZQ7 19-238); assay: SPR (Biacore), affinity ranking, PDL1-His
T2 construct: also called human PD-L1-His protein; recombinant PD-L1 protein; not shown: his tag
T2 sequence (Q9NZQ7 19-238 limits assumed): as above

[3] = target: T1, human PD-L1-Fc protein; assay: ELISA, antibody titrated on coated human PD-L1-Fc, OD 450nm; upper left panel
Method: as §1

[4] = target: T1, human PD-L1-Fc protein; assay: ELISA, antibody titrated on coated human PD-L1-Fc, OD 450nm; lower left panel; the table row is headed 'IC50' on the sheet although the curves rise
Method: as §1

Binder	EC50 [1] [ng/mL]	Kd [2] [nM]	koff [2] [s⁻¹]	kon [2] [M⁻¹ s⁻¹]	EC50 [3] [ng/mL]	EC50 [4] [ng/mL]
B1	12.5	0.0356	9.84e-05	2.76e+06	–	–
B2	–	0.0655	0.000121	1.86e+06	12.5	–
B3	–	0.0587	0.000118	2.01e+06	11.8	–
B4	–	0.0341	9.54e-05	2.8e+06	–	10.2
B5	–	0.0548	0.000103	1.88e+06	10.6	–
B6	10.1	0.0392	9.34e-05	2.38e+06	–	–
B7	8.45	0.0454	0.0001	2.21e+06	–	–
B8	8.25	0.0321	0.000164	5.11e+06	–	–
B9	9.53	0.0351	9.01e-05	2.56e+06	–	–
B10	–	0.617	0.000465	754000	6.22	–
B11	–	0.122	8.56e-05	701000	6.51	–
B12	–	0.0785	5.79e-05	738000	6.66	–
B13	–	0.133	8.51e-05	641000	7.28	–
B14	–	0.736	0.000494	671000	6.37	–
B15	7.82	0.151	8.99e-05	595000	–	–
B16	7.41	0.102	6.66e-05	655000	–	–
B17	8.42	0.713	0.000478	671000	–	–
